Measurements published in the RNAGym collection of RNA variant scans (doi:10.1021/acssynbio.7b00057).

B1: Pistol ribozyme (parent)
chain: GGGUCGUUGUUCCAUAAUCGCGUGGAUAUGGCACGCAAGUUUCUACCGGGCACCGUAAAUGUCCGACUGGAGCCGUUCGGGCGGCUAUAAACAGACCUCAGGCCCGAAGCGUGGCGGCACCUGCCGCCGGUGGUAAAAAAGAUCGGAAGAGCACACGUCU

Variants of: B1
Assay: aptazyme ON/OFF ratio, guanine; higher = stronger switching; co-transcriptional cleavage with and without guanine

Aptazyme ON/OFF ratio, 1.03:
U7C U8G G9A U10G U11C C13U
U7C U8G G9A U10G U11G C12G C13G
U7A U8G G9C U10C U11G C12U
U7A G9A U11C C13U
U8C G9U U11C C13A

Aptazyme ON/OFF ratio, 3.67:
U8G U10C C12U

Aptazyme ON/OFF ratio, 2.09:
U10C C12U

Aptazyme ON/OFF ratio, 1.1:
U7C U8C G9A U10G U11G C12U C13A
U7A U8C G9C U10A C12G C13A
U7A G9U U10G U11C C13A
U8C G9C U10C U11G C12A

Aptazyme ON/OFF ratio, 1.19:
U7C U8C U11A C13G
U7C U8G G9U U10C U11G C13U
U8C G9U U10G U11C C12A C13G
U7A U8A G9C U10G C12U C13G

Aptazyme ON/OFF ratio, 1.48:
U8C G9U U10A U11A C12U

Aptazyme ON/OFF ratio, 1.04:
U7A G9C U10A U11C
U7A U8C G9C U10A U11G C12A
U7A U8G G9C U10A U11C C13U
U7C G9U U10C U11G C13G
G9C U10C U11G C12G C13A
U7C U8A U10A U11G C13G

Aptazyme ON/OFF ratio, 3.53:
U7C U8C G9C U10C

Aptazyme ON/OFF ratio, 1.96:
U7A U8G G9U C13U

Aptazyme ON/OFF ratio, 1.22:
U7A U8C G9A U10A C13A
U7A G9U U10A U11G C12U C13U
U7A U8A G9U U10C U11A C12A
U7C U8G C12A C13A
U7G U8C U10G C12U C13G
U7C U8G G9U U10A U11G
U7A U10C U11A C12G C13A
U7C U8G G9U U10A U11A C13U
U7G U8G G9A C12U C13G
U7G U8C G9C C12G

Aptazyme ON/OFF ratio, 1.02:
U7C U8G G9A U11C C13G
U7A U8C G9C U10C U11C C12U C13G
U8C G9C U10C U11A C12A C13U

Aptazyme ON/OFF ratio, 1.24:
U7G G9U U10A C12G C13G

Aptazyme ON/OFF ratio, 1.09:
U7G U8A G9U U10A U11C C12G
U7G U8A G9A U10G U11C C12A C13G
U7G U8G G9A U11G C12A C13G
U7C U8G G9A U10C U11A C12G C13G
U7C U8C G9U U10C U11A C12U C13U
G9C U10C U11G C12G
U8A G9A U10G U11G C12A
U7A U8C G9C U10C U11G C12U C13A
U7C U8C G9U U11G C12U C13U
U7A U8A G9C U10G U11C C13A
U7G G9A U10A U11C

Aptazyme ON/OFF ratio, 1.28:
U7A U8G G9U U11G C13A

Aptazyme ON/OFF ratio, 1.34:
U7G G9A U11C C12A

Aptazyme ON/OFF ratio, 1.39:
U10A U11A C12A C13A

Aptazyme ON/OFF ratio, 1.41:
U7A U8G U11A C12A C13A

Aptazyme ON/OFF ratio, 1.66:
U7G U8C G9C U11G C12U

Aptazyme ON/OFF ratio, 1.23:
U7G U8C G9U U10A U11A C12U C13A
U8C G9U U11G C13U
U7G U8G G9C U10C U11A C12U C13U
U7C U8C G9C U11A C12A

Aptazyme ON/OFF ratio, 1.33:
U7C U8G U10G C12A C13U

Aptazyme ON/OFF ratio, 1.63:
U7A U8G U11G C12U C13A

Aptazyme ON/OFF ratio, 1.38:
U7G G9C U10G C12U
U7G U8G U10C
U7C U8A G9U U10A U11A
U7A U8G G9C U10G U11A C12A C13G

Aptazyme ON/OFF ratio, 1:
G9U U11A C12G C13U

Aptazyme ON/OFF ratio, 1.06:
U7C U8A G9A U11C
U8C G9C U10C C12A
U7G U8C G9A U11C C13G
U7G U8C U10A U11C C12G C13G
U7G U10C U11C C12G C13U
U7A G9C U10G U11C C12A C13U
U7G U8C G9A U10C U11C C12U C13U
G9A U10A C12A C13G

Aptazyme ON/OFF ratio, 1.14:
U7A U8C G9U U10C C12A C13A
U7C G9U U11C C12A C13U
U7C U8G U10A U11C C12G C13A
U8G G9C U10A U11G C12A C13G
U8A U10A U11A C12A
U7G U8G G9U U11G C12G C13G
U8C G9A C12A C13G
U7C U8G G9U U10C U11G C12A

Aptazyme ON/OFF ratio, 1.47:
U7A U8A G9U U10G U11G C12U C13A
U11A C12A C13U

Aptazyme ON/OFF ratio, 1.26:
U7G U8A G9A U10A U11A C12G
U7A G9A U10G U11G C12U C13U

Aptazyme ON/OFF ratio, 1.08:
U7A G9C U11C C12A C13U
U8G G9C U10C U11G C12A C13A
U7A U8C G9C U10C C12G C13U

Aptazyme ON/OFF ratio, 1.52:
U7G U8A G9U U10C C12G

Aptazyme ON/OFF ratio, 1.2:
U7G U8A U10A C13A
U7A U8C G9A U10A C13U
U7C G9U U10G U11C C12A

Aptazyme ON/OFF ratio, 1.18:
U7A U8C G9C U10G U11C C12G C13G
U8A G9C U10A U11A C12U C13A

Aptazyme ON/OFF ratio, 1.25:
U7A U8G G9U U11A C12A C13U

Aptazyme ON/OFF ratio, 1.07:
U8G G9A U10C U11A C12G C13G
U7G U8C G9C U10A U11A C12U C13A
U7A U8A G9C U11C C13U
U7A U8C G9C U10G U11G C12U C13A
U7A U8C G9C U10A U11A C12U
U8G U10C U11G C13G
U7G U8C U10C U11A C13G
U7G G9C U11C C12G C13G

Aptazyme ON/OFF ratio, 1.74:
G9U U11G

Aptazyme ON/OFF ratio, 1.32:
U7A U8G U10C C13G
U7C U8A G9A C12A

Aptazyme ON/OFF ratio, 1.01:
U8A G9C U10C U11C C12U C13G
U8A G9C U10A U11C

Aptazyme ON/OFF ratio, 1.16:
U7C U8G G9C U10A U11G C12U C13A
U7C U8C U10C C12G
U8C G9A U10G U11A C12U C13G
U7C U8C G9C U10A C13A
U7A U10C U11C C12A C13G
U7G U8C U10G U11A C13A

Aptazyme ON/OFF ratio, 1.05:
U7G U8A U10A U11C C12U
U7A G9C U10C U11C C12U C13A
U7G G9A U10G U11A C12G C13U
U8C G9C U10A U11C

Aptazyme ON/OFF ratio, 1.12:
U7C G9U U10G U11C C12G C13U
U7G U8C G9U U10G U11G C12A C13G
U7A U8A U10C U11A C12G C13U
U7C U8G G9A U10A U11A C12G C13A
U8C G9C U11G C12G C13A
U7G U8G G9A U10C C13G

Aptazyme ON/OFF ratio, 2.13:
U7G G9U U11G

Aptazyme ON/OFF ratio, 1.53:
G9C U11A C12U

Aptazyme ON/OFF ratio, 1.27:
U7G U8C G9U U10C U11C C12U C13U
U7G U8G G9A U10C U11G C13A
U7C U8C G9U U10A C13U

Aptazyme ON/OFF ratio, 1.17:
U7G U8G U10C U11A C12G C13A
U8G G9C U10A C12G C13U
U7G U8G G9C U10C U11G C12A C13A
U7C U10A U11G C12A C13A
U7A G9A U11C C12A C13A
U7C U8G G9A U10A C12U C13G
U7A U10G U11A C12A C13A

Aptazyme ON/OFF ratio, 1.3:
U8A U10A U11G C12A C13G
U8C G9A U11G C12G

Aptazyme ON/OFF ratio, 1.5:
U10G C13U

Aptazyme ON/OFF ratio, 1.29:
U7G G9C U10A U11A C12U C13A
U7C U8C G9U U10C U11G C13U
U7C G9A U10A U11A C12A C13U
U7A G9A U10G C13A

Aptazyme ON/OFF ratio, 1.11:
U7G U8C G9C U11C C12A C13A
U7G U8C G9C U10G U11A
U7C U10A U11A C12A C13G
U7G U8A G9A U10G U11A C12G
G9U U10A U11G C12G C13G
U7A U8A U11A C13A
U7C U8A G9C U10A C12U C13G
U8C G9A U10A U11G C12A C13U

Aptazyme ON/OFF ratio, 3.1:
U7G G9C U10A

Aptazyme ON/OFF ratio, 1.21:
U7C U8C G9U U11A C12A
U7G U8A U11A C12G C13U
U7C U8C G9A U10C U11A C12U C13A
U8A G9U U10G U11A C12A

Aptazyme ON/OFF ratio, 1.43:
U7A U11C C12U

Aptazyme ON/OFF ratio, 1.13:
U7A U8C U10A U11C C12G C13U
U7A U8C G9C U10A U11C C12U

Aptazyme ON/OFF ratio, 1.15:
U7C U8C G9A U11G C12U C13G
U7C U8C G9U U10A U11G C12G
U7G U8C G9A U10A C12A
U7G U8C G9A U10A C12G C13U
U7G U8C U10A U11A C12A C13U
U7A U8C U10G U11A C12A C13G
U7G G9C U10A U11A C12A C13G
U7G U8A G9U U11G C12U C13U
